Patent US20220267464A1
Where two headings read alike, the source gives them in different places.

Legend:
[1] = biological target: human 4-1BB on Jurkat-hu4-1BB-NFκB-luc2 reporter cells (human) (UniProt Q07011); experiment: cell-based or functional assay; design: AUC of activation curve, Jurkat-hu4-1BB-NFκB-luc2, no CEA+ cells / AUC of activation curve, Jurkat-hu4-1BB-NFκB-luc2 with CHO-k1-cyno CEACAM5 clone 8: unit not given beside the values
[2] = biological target: human CEACAM5 (carcinoembryonic antigen, CEA) on cells (human) (UniProt P06731); experiment: cell-based or functional assay
human CEACAM5 (carcinoembryonic antigen, CEA) on cells (human), sequence (P06731 35-685 E398K limits assumed): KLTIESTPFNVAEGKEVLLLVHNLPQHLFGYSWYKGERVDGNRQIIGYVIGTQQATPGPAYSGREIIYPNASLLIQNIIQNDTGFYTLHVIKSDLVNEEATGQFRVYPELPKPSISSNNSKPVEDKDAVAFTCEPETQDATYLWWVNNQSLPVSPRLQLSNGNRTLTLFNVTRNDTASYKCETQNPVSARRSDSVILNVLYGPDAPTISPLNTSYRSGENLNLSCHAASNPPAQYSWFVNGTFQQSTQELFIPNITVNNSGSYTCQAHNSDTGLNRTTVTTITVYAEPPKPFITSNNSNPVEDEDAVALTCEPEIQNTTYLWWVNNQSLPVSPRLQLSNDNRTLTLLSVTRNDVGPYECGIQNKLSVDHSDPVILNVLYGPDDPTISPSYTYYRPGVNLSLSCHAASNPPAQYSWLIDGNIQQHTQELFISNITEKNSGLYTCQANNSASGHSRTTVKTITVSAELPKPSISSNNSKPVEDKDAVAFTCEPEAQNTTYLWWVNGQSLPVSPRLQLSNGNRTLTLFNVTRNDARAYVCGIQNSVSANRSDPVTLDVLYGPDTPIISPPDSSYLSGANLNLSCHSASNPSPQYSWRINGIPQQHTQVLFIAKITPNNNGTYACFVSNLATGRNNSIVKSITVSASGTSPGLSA

[3] = biological target: cynomolgus monkey CEACAM5 on CHO-k1-cynoCEACAM5 clone 8 cells (cynomolgus monkey); experiment: cell-based or functional assay; design: AUC of activation curve, Jurkat-hu4-1BB-NFκB-luc2, no CEA+ cells / AUC of activation curve, Jurkat-hu4-1BB-NFκB-luc2 with CHO-k1-cyno CEACAM5 clone 8: unit not given beside the values
[4] = biological target: human CEACAM5 (carcinoembryonic antigen, CEA) on cells (human) (UniProt P06731); experiment: cell-based or functional assay; design: AUC of activation curve, Jurkat-hu4-1BB-NFκB-luc2, no CEA+ cells / AUC of activation curve, Jurkat-hu4-1BB-NFκB-luc2 with CHO-k1-cyno CEACAM5 clone 8: unit not given beside the values
[5] = biological target: human CEACAM5 (carcinoembryonic antigen, CEA) on cells (human) (UniProt P06731); experiment: flow cytometry, CHO-k1-huCEACAM5 clone 11; design: unit not given beside the values
[6] = biological target: human CEACAM5 (carcinoembryonic antigen, CEA) on cells (human) (UniProt P06731); experiment: flow cytometry, CHO-k1-huCEACAM5 clone 12; design: unit not given beside the values
[7] = biological target: human CEACAM5 (carcinoembryonic antigen, CEA) on cells (human) (UniProt P06731); experiment: flow cytometry, CHO-k1-huCEACAM5 clone 12; design: unit not given beside the values; remark: listed apart in the source
[8] = biological target: human CEACAM5 (carcinoembryonic antigen, CEA) on cells (human) (UniProt P06731); experiment: flow cytometry, CHO-k1-huCEACAM5 clone 11; design: unit not given beside the values; remark: listed apart in the source
[9] = biological target: cynomolgus monkey CEACAM5 on CHO-k1-cynoCEACAM5 clone 8 cells (cynomolgus monkey); experiment: flow cytometry, CHO-k1-cynoCEACAM5 clone 8; design: unit not given beside the values
[10] = biological target: cynomolgus monkey CEACAM5 on CHO-k1-cynoCEACAM5 clone 8 cells (cynomolgus monkey); experiment: flow cytometry, CHO-k1-cynoCEACAM5 clone 8; design: unit not given beside the values; remark: listed apart in the source
[11] = biological target: human CEACAM5 (carcinoembryonic antigen, CEA) on cells (human) (UniProt P06731); experiment: flow cytometry, CHO-k1-huCEACAM5 clone 13; design: unit not given beside the values
[12] = biological target: human CEACAM5 (carcinoembryonic antigen, CEA) on cells (human) (UniProt P06731); experiment: flow cytometry, CHO-k1-huCEACAM5 clone 17; design: unit not given beside the values
[13] = biological target: human CEACAM5 (carcinoembryonic antigen, CEA) on cells (human) (UniProt P06731); experiment: flow cytometry, MKN45 cells; design: unit not given beside the values

human 4-1BB on Jurkat-hu4-1BB-NFκB-luc2 reporter cells (human), sequence (Q07011 24-255 limits assumed): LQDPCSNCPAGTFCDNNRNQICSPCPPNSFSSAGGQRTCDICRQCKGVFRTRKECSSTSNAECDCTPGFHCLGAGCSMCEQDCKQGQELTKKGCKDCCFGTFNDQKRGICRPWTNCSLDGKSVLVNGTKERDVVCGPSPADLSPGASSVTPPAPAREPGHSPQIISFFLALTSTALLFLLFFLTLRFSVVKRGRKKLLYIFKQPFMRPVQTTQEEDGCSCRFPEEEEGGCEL

Substance	AUC of activation curve, Jurkat-hu4-1BB-NFκB-luc2, no CEA+ cells [1]	EC50, NFκB-luciferase in Jurkat-hu4-1BB-NFκB-luc2 with CHO-k1-human CEACAM5 clone 11 [2]	EC50, NFκB-luciferase in Jurkat-hu4-1BB-NFκB-luc2 with CHO-k1-human CEACAM5 clone 12 [2]	AUC of activation curve, Jurkat-hu4-1BB-NFκB-luc2 with CHO-k1-cyno CEACAM5 clone 8 [3]	AUC of activation curve, Jurkat-hu4-1BB-NFκB-luc2 with CHO-k1-human CEACAM5 clone 11 [4]	AUC of activation curve, Jurkat-hu4-1BB-NFκB-luc2 with CHO-k1-human CEACAM5 clone 12 [4]	other results
CEA (MEDI-565)-4-1BBL (Fc fusion)	2270	–	–	–	–	–	–
P1AD5108-002 DP47 huIgG1 PG LALA (Isotype control) (antibody)	–	–	–	–	–	–	AUC [13]: 420

Second part, led by results:

AUC of activation curve, Jurkat-hu4-1BB-NFκB-luc2, no CEA+ cells [1]	EC50, NFκB-luciferase in Jurkat-hu4-1BB-NFκB-luc2 with CHO-k1-human CEACAM5 clone 11 [2]	EC50, NFκB-luciferase in Jurkat-hu4-1BB-NFκB-luc2 with CHO-k1-human CEACAM5 clone 12 [2]	AUC of activation curve, Jurkat-hu4-1BB-NFκB-luc2 with CHO-k1-cyno CEACAM5 clone 8 [3]	AUC of activation curve, Jurkat-hu4-1BB-NFκB-luc2 with CHO-k1-human CEACAM5 clone 11 [4]	AUC of activation curve, Jurkat-hu4-1BB-NFκB-luc2 with CHO-k1-human CEACAM5 clone 12 [4]	Substance	other results
2810	0.05 nM	0.03 nM	3970	162000	164000	CEA(sm9b)-4-1BBL (Fc fusion)	–
1980	0.09 nM	0.07 nM	2820	150000	146000	CEA(sm9b)-4-1BBL single chain (Fc fusion)	–
2930	–	–	4710	8640	6640	DP47-4-1BBL (Fc fusion)	AUC [5]: 1300; AUC [6]: 140; AUC [7]: 700; AUC [8]: 148; AUC [9]: 11; AUC [10]: 520; AUC [11]: 752; AUC [12]: 430
